Source: US20230220589A1

Tests used:
[1] = biological target: M44-modified F NTAA target peptides (M44-F-P2-peptide); assay: encoding assay; P2 V;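 further: fraction of recording tags encoded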
[2] = biological target: M44-modified P NTAA target peptides; assay: encoding assay; P2 V;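 further: fraction of recording tags encoded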
[3] = biological target: M44-modified D NTAA target peptides; assay: encoding assay; P2 V;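 further: fraction of recording tags encoded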
[4] = biological target: M44-modified T NTAA target peptides; assay: encoding assay; P2 V
[5] = biological target: M44-modified M NTAA target peptides; assay: encoding assay; P2 V
[6] = biological target: M44-modified N NTAA target peptides; assay: encoding assay; P2 V;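 further: fraction of recording tags encoded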
[7] = biological target: M44-modified L NTAA target peptides (M44-L-P2-peptide); assay: encoding assay; P2 V;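 further: fraction of recording tags encoded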
[8] = biological target: M44-modified H NTAA target peptides; assay: encoding assay; P2 V
[9] = biological target: M44-modified I NTAA target peptides (M44-I-P2-peptide); assay: encoding assay; P2 V
[10] = biological target: M44-modified W NTAA target peptides; assay: encoding assay; P2 V;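 further: fraction of recording tags encoded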
[11] = biological target: M44-modified Q NTAA target peptides; assay: encoding assay; P2 V
[12] = biological target: M44-modified A NTAA target peptides (M44-A-P2-peptide); assay: encoding assay; P2 V
[13] = biological target: M44-modified Y NTAA target peptides (M44-Y-P2-peptide); assay: encoding assay; P2 V;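 further: fraction of recording tags encoded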
[14] = biological target: M44-modified S NTAA target peptides; assay: encoding assay; P2 V;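 further: fraction of recording tags encoded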
[15] = biological target: M44-modified Q NTAA target peptides; assay: encoding assay; P2 D
[16] = biological target: M44-modified F NTAA target peptides (M44-F-P2-peptide); assay: encoding assay; P2 I;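 further: fraction of recording tags encoded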
[17] = biological target: M44-modified G NTAA target peptides (M44-G-P2-peptide); assay: encoding assay; P2 I;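 further: fraction of recording tags encoded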
[18] = biological target: M44-modified E NTAA target peptides; assay: encoding assay; P2 I;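 further: fraction of recording tags encoded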
[19] = biological target: M44-modified D NTAA target peptides; assay: encoding assay; P2 I;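 further: fraction of recording tags encoded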
[20] = biological target: M44-modified V NTAA target peptides; assay: encoding assay; P2 I;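 further: fraction of recording tags encoded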
[21] = biological target: M44-modified T NTAA target peptides; assay: encoding assay; P2 I
[22] = biological target: M44-modified M NTAA target peptides; assay: encoding assay; P2 I
[23] = biological target: M44-modified N NTAA target peptides; assay: encoding assay; P2 I;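 further: fraction of recording tags encoded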
[24] = biological target: M44-modified L NTAA target peptides (M44-L-P2-peptide); assay: encoding assay; P2 I;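 further: fraction of recording tags encoded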
[25] = biological target: M44-modified H NTAA target peptides; assay: encoding assay; P2 I
[26] = biological target: M44-modified I NTAA target peptides (M44-I-P2-peptide); assay: encoding assay; P2 I
[27] = biological target: M44-modified W NTAA target peptides; assay: encoding assay; P2 I;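 further: fraction of recording tags encoded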
[28] = biological target: M44-modified Q NTAA target peptides; assay: encoding assay; P2 I
[29] = biological target: M44-modified A NTAA target peptides (M44-A-P2-peptide); assay: encoding assay; P2 I
[30] = biological target: M44-modified Y NTAA target peptides (M44-Y-P2-peptide); assay: encoding assay; P2 I;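 further: fraction of recording tags encoded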
[31] = biological target: M44-modified S NTAA target peptides; assay: encoding assay; P2 I;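 further: fraction of recording tags encoded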
[32] = biological target: M44-modified F NTAA target peptides (M44-F-P2-peptide); assay: encoding assay; P2 L;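 further: fraction of recording tags encoded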
[33] = biological target: M44-modified G NTAA target peptides (M44-G-P2-peptide); assay: encoding assay; P2 L;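 further: fraction of recording tags encoded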
[34] = biological target: M44-modified E NTAA target peptides; assay: encoding assay; P2 L;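 further: fraction of recording tags encoded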
[35] = biological target: M44-modified P NTAA target peptides; assay: encoding assay; P2 L;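 further: fraction of recording tags encoded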
[36] = biological target: M44-modified D NTAA target peptides; assay: encoding assay; P2 L;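 further: fraction of recording tags encoded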
[37] = biological target: M44-modified V NTAA target peptides; assay: encoding assay; P2 L;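 further: fraction of recording tags encoded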
[38] = biological target: M44-modified T NTAA target peptides; assay: encoding assay; P2 L
[39] = biological target: M44-modified M NTAA target peptides; assay: encoding assay; P2 L
[40] = biological target: M44-modified N NTAA target peptides; assay: encoding assay; P2 L;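 further: fraction of recording tags encoded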
[41] = biological target: M44-modified L NTAA target peptides (M44-L-P2-peptide); assay: encoding assay; P2 L;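 further: fraction of recording tags encoded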
[42] = biological target: M44-modified H NTAA target peptides; assay: encoding assay; P2 L
[43] = biological target: M44-modified I NTAA target peptides (M44-I-P2-peptide); assay: encoding assay; P2 L
[44] = biological target: M44-modified W NTAA target peptides; assay: encoding assay; P2 L;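 further: fraction of recording tags encoded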
[45] = biological target: M44-modified Q NTAA target peptides; assay: encoding assay; P2 L
[46] = biological target: M44-modified A NTAA target peptides (M44-A-P2-peptide); assay: encoding assay; P2 L
[47] = biological target: M44-modified Y NTAA target peptides (M44-Y-P2-peptide); assay: encoding assay; P2 L;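 further: fraction of recording tags encoded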
[48] = biological target: M44-modified S NTAA target peptides; assay: encoding assay; P2 L;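 further: fraction of recording tags encoded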
[49] = biological target: M44-modified T NTAA target peptides; assay: encoding assay; P2 T
[50] = biological target: M44-modified M NTAA target peptides; assay: encoding assay; P2 T
[51] = biological target: M44-modified Y NTAA target peptides (M44-Y-P2-peptide); assay: encoding assay; P2 T;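 further: fraction of recording tags encoded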

B1: engineered M44-A binder (SEQ ID NO: 42) (designed binder, not shown: small tags and cut ends; large carriers)
chain: QVSVQPNFQQDKFLGRWFVAGLASNSSWDREKVAALSGAKMVVAPATDGGLNVTRTMLRKNQCETYTGLLQPAGSLGSYSWRSPHPGSTGSESVVETDYDQYALVYGQGSKGPGEDLRAAALWSRTQTPRAELKEKFTAFSKAQGFTEDTIVFLPQTDKCMTEQ
B1 was tested, and the encoding yield [1] was 0.09, the encoding yield [2] was 0.04 and the encoding yield [3] was 0.03. The encoding yield [4] was 0.12, the encoding yield [5] was 0.04 and the encoding yield [6] was 0.04. It also gave an encoding yield [7] of 0.04, an encoding yield [8] of 0.05 and an encoding yield [9] of 0.05. The encoding yield [10] was 0.06, the encoding yield [11] was 0.04 and the encoding yield [12] was 0.17. It also gave an encoding yield [13] of 0.06, an encoding yield [14] of 0.05 and an encoding yield [15] of 0.02. The encoding yield [16] was 0.02, the encoding yield [17] was 0.1 and the encoding yield [18] was 0.03. The encoding yield [19] was 0.03, the encoding yield [20] was 0.11 and the encoding yield [21] was 0.12. It also gave an encoding yield [22] of 0.01, an encoding yield [23] of 0.03 and an encoding yield [24] of 0.03. For the same binder, the encoding yield [25] was 0.04, the encoding yield [26] was 0.08 and the encoding yield [27] was 0.02. It also gave an encoding yield [28] of 0.03, an encoding yield [29] of 0.2 and an encoding yield [30] of 0.1. For the same binder, the encoding yield [31] was 0.1, the encoding yield [32] was 0.02 and the encoding yield [33] was 0.16. For the same binder, the encoding yield [34] was 0.03, the encoding yield [35] was 0.02 and the encoding yield [36] was 0.02. For the same binder, the encoding yield [37] was 0.15, the encoding yield [38] was 0.11 and the encoding yield [39] was 0.04. For the same binder, the encoding yield [40] was 0.05, the encoding yield [41] was 0.18 and the encoding yield [42] was 0.03. For the same binder, the encoding yield [43] was 0.03, the encoding yield [44] was 0.02 and the encoding yield [45] was 0.04. For the same binder, the encoding yield [46] was 0.37, the encoding yield [47] was 0.07 and the encoding yield [48] was 0.27. For the same binder, the encoding yield [49] was 0.1, the encoding yield [50] was 0.01 and the encoding yield [51] was 0.05.

B2: engineered M44-L binder (SEQ ID NO: 21) (designed binder, not shown: small tags and cut ends; large carriers)
chain: QVSVQPNFQQDKFLGRWFYAGHASNSSWYREKVAALSMAKLVVAPATDGGLNATETFLRKNQCETITSLLQPAGSLGSYSSRSPHGGSTWSTSVVETDYDQYALLYLQGSKGPGEDFRGAILASRTQTPRAELKEKFTAFSKAQGFTEDTIVFLPQTDKCMTEQ
B2 showed an encoding yield [1] of 0.04, an encoding yield [2] of 0.01 and an encoding yield [3] of 0.01. It also gave an encoding yield [4] of 0.01, an encoding yield [5] of 0.08 and an encoding yield [6] of 0.01. The encoding yield [7] was 0.09, the encoding yield [8] was 0.01 and the encoding yield [9] was 0.09. It also gave an encoding yield [10] of 0.02, an encoding yield [11] of 0.01 and an encoding yield [12] of 0.01. The encoding yield [13] was 0.02, the encoding yield [14] was 0.01 and the encoding yield [15] was 0.01. It also gave an encoding yield [16] of 0.01, an encoding yield [17] of 0.02 and an encoding yield [18] of 0.01. The encoding yield [19] was 0.01, the encoding yield [20] was 0.03 and the encoding yield [21] was 0.01. For the same binder, the encoding yield [22] was 0.03, the encoding yield [23] was 0.01 and the encoding yield [24] was 0.06. For the same binder, the encoding yield [25] was 0.01, the encoding yield [26] was 0.13 and the encoding yield [27] was 0.02. It also gave an encoding yield [28] of 0.01, an encoding yield [29] of 0.01 and an encoding yield [30] of 0.03. For the same binder, the encoding yield [31] was 0.02, the encoding yield [32] was 0.01 and the encoding yield [33] was 0.01. It also gave an encoding yield [34] of 0.01, an encoding yield [35] of 0.01 and an encoding yield [36] of 0.01. It also gave an encoding yield [37] of 0.02, an encoding yield [38] of 0.01 and an encoding yield [39] of 0.03. The encoding yield [40] was 0.02, the encoding yield [41] was 0.22 and the encoding yield [42] was 0.01. For the same binder, the encoding yield [43] was 0.03, the encoding yield [44] was 0.02 and the encoding yield [45] was 0.02. For the same binder, the encoding yield [46] was 0.01, the encoding yield [47] was 0.03 and the encoding yield [48] was 0.02. The encoding yield [49] was 0.01, the encoding yield [50] was 0 and the encoding yield [51] was 0.02.
